B1: Poly(rC)-binding protein 1, residues 278 to 350; numbered along this chain, Q15365 (parent)
chain: TQTTHELTIPNNLIGCIIGRQGANINEIRQMSGAQIKIANPVEGSSGRQVTITGSAASISLAQYLINARLSSE

Variants of: B1
Assay: abundance fitness (aPCA) (normalised: wild type 0, dead -1); higher = more abundant; growth selection in yeast, the domain comes from the species named
Conditions: Homo sapiens

Abundance fitness, by site and new letter:
I36: E -0.986; H 0.062; W -1.04; R -0.835; M -0.648; Y -0.767; Q -0.829; P -1.01; L -0.406; F -0.5; K -1.14; C -0.276; G -0.782; N -0.689; D -0.852; A -0.97
E43: M 0.05; Q -0.258; G -0.115; I 0.01; T -0.119; A -0.249; R -0.061; N -0.024; V 0.073; W -0.18; H -0.021; F -0.179; C -0.168; L -0.039; Y -0.051; S -0.02
M31: F -0.109; G -0.347; I -0.196; S -0.171; V -0.126; A 0.038; R 0.088; Y -0.056; T -0.051; Q 0.095; W -0.325; L -0.009; K 0.162; D -0.337; N 0.203; P -0.894; C 0.029; E 0.019
A39: Q -0.075; S 0.03; I -0.029; R -0.17; G 0.061; N 0.076; W -0.071; L -0.04; P -0.428; K -0.05; V -0.382; D 0.032; F -0.46; M -0.092; C -0.035
P41: C -0.09; Y -0.021; S -0.061; R 0.018; G -0.11; L -0.046; Q 0.049; D -0.092; I -0.196; E -0.012; V -0.218; A 0.057; T -0.081; M 0.115
G33: L -0.61; A -0.405; N -0.439; C -0.652; F -0.927; M -0.657; Y -1.01; K -0.362; T -0.575; V -1.05; P -1.04; H -0.618; S -0.382; Q -0.204; W -0.414; I -0.296; R -0.324; E -0.541
E27: V -0.26; Y -0.157; D -0.099; N 0.08; Q 0.028; C -0.169; P -0.704; G -0.244; R 0.005; W -0.136; L -0.225; M 0.014; K 0.021; A -0.18; I -0.164; T -0.102; H -0.09; S -0.035; F -0.564
N26: E -0.035; T -0.022; R 0.032; F -0.354; Q 0.025; W -0.34; P -0.682; M -0.094; V -0.327; L -0.291; K 0.104; C -0.196; A -0.002; D -0.08; G -0.27; S -0.003; H -0.193; I -0.119
Q35: Y -0.231; D 0.001; N 0.088; I -0.104; F -0.233; E -0.058; P -0.641; M -0.09; A -0.11; T 0.017; W -0.21; C -0.15; R 0.023; S -0.012; H 0.138; G -0.13; L -0.15; V -0.119
A34: P -0.372; K -0.943; T 0.023; C -0.462; L -1.18; S -0.122; Q -0.641; F -0.447; E -1.24; G -0.597; R -0.721; V -0.792; W -0.759
G44: I -0.732; Y 0.081; D -0.087; E -0.278; P -0.211; K -0.229; H -0.333; A -0.213; C -0.19; Q -0.308; S -0.235; N -0.12; M -0.343; W -0.424; R -0.212; V -0.353; T -0.374; F -0.182; L -0.401
N40: S -0.012; H -0.094; K 0.02; L -0.17; P -0.002; V -0.266; T -0.16; A -0.023; C -0.085; I -0.553; Y -0.165; R 0.016; E 0.004; M -0.052; W -0.512; F -0.373; D 0.034; Q 0.086; G 0.026
S45: F -0.009; G -0.292; H -0.223; I -0.093; E 0.002; A -0.002; C 0.012; D 0.026
V42: S -0.028; T -0.1; G -0.13; P -0.192; Q -0.159; D -0.028; E -0.011; M -0.229; I -0.007; R -0.012; K -0.017; C -0.086; H -0.186; W -0.525; N -0.272; L -0.151; Y -0.141
Q30: D -0.502; G -0.168; W -0.334; P -0.809; C -0.341; K 0.172; M -0.137; L -0.163; E 0.013; R 0.099; T 0.064; A 0.001; S 0.023; N 0.147; F -0.094
S32: P -0.91; A -0.498; G -0.793; I -0.882; D -0.965; W -1.14; K -0.8; Q -0.334; V -0.858; R -0.85; L -0.703; M -0.703; F -1; T -0.16; C -0.201
I25: P -0.84; Q -0.564; T -0.367; R -0.803; W -0.622; V -0.308; S -0.674
I28: L -0.143; V -0.257; Y -0.731; W -0.408; C -0.633; H -0.956; D -0.524; Q -0.683; F -0.65; M -0.281; G -0.78; A -0.735; E -0.895; S -1.04; P -0.939; R -0.825
I38: F -0.301; W -0.53; C -0.793; Q -0.828; T -0.403; A -0.672; L -0.11; S -0.814; P -0.631; D -0.754; G -0.727; E -0.679; V -0.094; R -0.737; M -0.333; K -0.612
R29: D -0.631; C -0.205; M -0.022; G -0.142; H -0.225; T -0.085; S -0.046; I -0.081; N 0.037; W -1.06; P -0.817; A -0.059; F -0.271; L -0.386; K -0.18; E 0.062; V -0.129; Q 0.067; Y -0.55
K37: T 0.051; G -0.255; H -0.272; S -0.11; A -0.109; V -0.032; F -0.41; L -0.142; D -0.034; M -0.065; W -0.215; N 0.032; C -0.4; Q 0.083; P -0.718; I 0.124; E 0.01; Y 0.007

From the Human Domainome abundance scans (Beltran et al. 2025)
